The results in this text go back to publication PMC12507909.

What is called Kd is the concentration at which binding is half-saturated.

The experiment addresses basigin (BSG), recombinant extracellular domain Met1-His205 (human). Put plainly: ELISA; Maxisorp plates coated with 5 μg/mL of each receptor candidate; serial dilutions of PvRBP1a_(158-650)LTID and LTID (48,000 pM to 187.5 pM and 4,000 pM to 1.28 pM) in blocking solution, 16 hours at 4°C; detected with a TurboID-specific antibody; one-site binding saturation model; triplicates. In general terms: An ELISA detects its analyte on a solid surface through an enzyme-linked reagent.

Take “PvRBP1a_(158-650)LTID fusion protein (from UniProt Q5DSE1 158-650) (domain or fragment)”: the Kd came out at 2.16 nM.
